{
  "source": "paper PMC11952319",
  "experiment_in_all_cases": "BLI",
  "key": {"[1]": {"target": "M15 single reverted mutant T57I (light chain residue 57 reverted to the germline residue) (human)"}, "[2]": {"target": "M15 single reverted mutant S32I (light chain residue 32 reverted to the germline residue) (human)"}, "[3]": {"target": "M15 single reverted mutant G51A (light chain residue 51 reverted to the germline residue) (human)"}, "[4]": {"target": "M15 triple mutant with all three light chain mutations (S32I, G51A, T57I) reverted to germline (human)"}},
  "data": [
    {"substance": "SARS-CoV-2 WA1/2020 S2 protein (stabilized prefusion SARS-CoV-2 spike S2 trimer) (from UniProt P0DTC2) (domain or fragment)", "values": [
      {"measurement": "fold decrease in binding affinity compared to M15", "setting": "[1]", "value": 1.02, "unit": "fold"},
      {"measurement": "fold decrease in binding affinity compared to M15", "setting": "[2]", "value": 1.45, "unit": "fold"},
      {"measurement": "fold decrease in binding affinity compared to M15", "setting": "[3]", "value": 1.88, "unit": "fold"},
      {"measurement": "fold decrease in binding affinity compared to M15", "setting": "[4]", "value": 12, "unit": "fold"}
    ]}
  ]
}
